From US20090186824A1 come the findings set out here.

In this assay the target is dipeptidyl peptidase IV (DPPIV) in plasma of ICR mouse blood (mouse), P28843. Briefly: cell-based or functional assay.

Where no end group is shown, it is not given here.

Sequence of dipeptidyl peptidase IV (DPPIV) in plasma of ICR mouse blood (mouse), P28843 (P28843 37-760 limits assumed): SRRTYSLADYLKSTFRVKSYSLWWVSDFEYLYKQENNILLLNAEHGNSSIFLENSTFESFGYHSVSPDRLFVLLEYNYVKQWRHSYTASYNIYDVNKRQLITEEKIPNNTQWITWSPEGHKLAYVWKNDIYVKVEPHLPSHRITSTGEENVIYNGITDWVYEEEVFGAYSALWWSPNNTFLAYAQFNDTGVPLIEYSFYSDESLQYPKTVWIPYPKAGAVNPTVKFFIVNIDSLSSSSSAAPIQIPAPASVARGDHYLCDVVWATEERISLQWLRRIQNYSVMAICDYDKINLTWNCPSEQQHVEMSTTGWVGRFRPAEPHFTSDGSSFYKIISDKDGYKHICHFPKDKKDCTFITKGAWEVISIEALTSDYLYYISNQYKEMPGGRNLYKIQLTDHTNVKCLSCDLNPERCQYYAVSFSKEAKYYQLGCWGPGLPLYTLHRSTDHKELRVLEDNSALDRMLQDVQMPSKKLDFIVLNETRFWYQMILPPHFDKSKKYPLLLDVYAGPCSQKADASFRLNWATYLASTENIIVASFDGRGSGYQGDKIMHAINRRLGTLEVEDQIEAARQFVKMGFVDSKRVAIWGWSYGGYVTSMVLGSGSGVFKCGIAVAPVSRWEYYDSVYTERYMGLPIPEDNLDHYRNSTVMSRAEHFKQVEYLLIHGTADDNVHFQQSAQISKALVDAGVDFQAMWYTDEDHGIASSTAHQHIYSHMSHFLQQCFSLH

On to RIVPA-OH [SEQ ID NO 10], for which the % DPPIV Activity (Saline) (% relative to saline control) came to 51.
